# Data taken from IntAct's records for PubMed 21685908.
# B1: Rab5 GDP/GTP exchange factor (Homo sapiens), Q9UJ41 (parent)
# chain: MSLKSERRGIHVDQSDLLCKKGCGYYGNPAWQGFCSKCWREEYHKARQKQIQEDWELAERLQREEEEAFASSQSSQGAQSLTFSKFEEKKTNEKTRKVTTVKKFFSASSRVGSKKEIQEAKAPSPSINRQTSIETDRVSKEFIEFLKTFHKTGQEIYKQTKLFLEGMHYKRDLSIEEQSECAQDFYHNVAERMQTRGKVPPERVEKIMDQIEKYIMTRLYKYVFCPETTDDEKKDLAIQKRIRALRWVTPQMLCVPVNEDIPEVSDMVVKAITDIIEMDSKRVPRDKLACITKCSKHIFNAIKITKNEPASADDFLPTLIYIVLKGNPPRLQSNIQYITRFCNPSRLMTGEDGYYFTNLCCAVAFIEKLDAQSLNLSQEDFDRYMSGQTSPRKQEAESWSPDACLGVKQMYKNLDLLSQLNERQERIMNEAKKLEKDLIDWTDGIAREVQDIVEKYPLEIKPPNQPLAAIDSENVENDKLPPPLQPQVYAG
# Variants of: B1
# Settings: with eea1_human EEA1, Q15075
# Sequence of eea1_human EEA1, Q15075 (Q15075 whole entry): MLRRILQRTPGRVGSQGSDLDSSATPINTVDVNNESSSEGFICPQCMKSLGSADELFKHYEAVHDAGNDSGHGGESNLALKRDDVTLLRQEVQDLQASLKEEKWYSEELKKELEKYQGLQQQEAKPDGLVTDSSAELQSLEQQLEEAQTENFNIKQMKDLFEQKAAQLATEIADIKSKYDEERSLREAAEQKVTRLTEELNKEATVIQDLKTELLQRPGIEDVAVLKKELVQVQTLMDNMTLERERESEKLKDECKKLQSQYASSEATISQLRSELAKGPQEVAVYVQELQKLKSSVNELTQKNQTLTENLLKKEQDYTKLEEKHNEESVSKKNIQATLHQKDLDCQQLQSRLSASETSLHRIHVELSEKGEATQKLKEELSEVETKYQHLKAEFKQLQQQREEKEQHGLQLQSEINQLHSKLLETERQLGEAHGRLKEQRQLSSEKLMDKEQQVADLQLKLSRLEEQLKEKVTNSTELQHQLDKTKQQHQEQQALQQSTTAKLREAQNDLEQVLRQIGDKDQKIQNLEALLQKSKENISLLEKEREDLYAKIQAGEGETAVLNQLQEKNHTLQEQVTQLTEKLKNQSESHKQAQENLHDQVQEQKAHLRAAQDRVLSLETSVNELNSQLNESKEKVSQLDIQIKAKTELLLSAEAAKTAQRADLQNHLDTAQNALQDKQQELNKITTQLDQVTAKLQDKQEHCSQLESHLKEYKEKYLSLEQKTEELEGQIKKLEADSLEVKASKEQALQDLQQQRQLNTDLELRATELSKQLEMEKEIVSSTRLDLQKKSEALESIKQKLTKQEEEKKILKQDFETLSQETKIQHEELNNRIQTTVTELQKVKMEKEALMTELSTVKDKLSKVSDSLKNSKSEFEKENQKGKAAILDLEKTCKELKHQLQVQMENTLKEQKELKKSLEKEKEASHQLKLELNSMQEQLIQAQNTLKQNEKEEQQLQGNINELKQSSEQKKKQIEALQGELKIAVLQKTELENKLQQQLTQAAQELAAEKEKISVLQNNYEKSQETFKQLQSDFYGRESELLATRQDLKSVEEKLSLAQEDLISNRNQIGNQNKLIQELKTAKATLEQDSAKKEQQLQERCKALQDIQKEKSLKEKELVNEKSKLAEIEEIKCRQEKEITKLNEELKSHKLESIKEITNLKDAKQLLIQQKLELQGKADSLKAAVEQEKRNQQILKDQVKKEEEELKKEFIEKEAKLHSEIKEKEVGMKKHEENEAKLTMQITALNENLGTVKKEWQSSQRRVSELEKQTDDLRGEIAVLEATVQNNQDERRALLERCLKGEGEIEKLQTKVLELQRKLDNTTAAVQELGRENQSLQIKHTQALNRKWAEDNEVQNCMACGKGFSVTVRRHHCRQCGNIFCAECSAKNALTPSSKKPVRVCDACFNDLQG
row,Variant,effect of a mutation on the interaction
1,Q79L,increasing interaction
